Data: article PMC5472220 (Nature structural & molecular biology, 2017)

Target: the molecule itself
Assay: cryo-EM structure

B1: E. coli CTP synthase (ecCTPS), wild type (enzyme)
chain: MTTNYIFVTGGVVSSLGKGIAAASLAAILEARGLNVTIMKLDPYINVDPGTMSPIQHGEVFVTEDGAETDLDLGHYERFIRTKMSRRNNFTTGRIYSDVLRKERRGDYLGATVQVIPHITNAIKERVLEGGEGHDVVLVEIGGTVGDIESLPFLEAIRQMAVEIGREHTLFMHLTLVPYMAASGEVKTKPTQHSVKELLSIGIQPDILICRSDRAVPANERAKIALFCNVPEKAVISLKDVDSIYKIPGLLKSQGLDDYICKRFSLNCPEANLSEWEQVIFEEANPVSEVTIGMVGKYIELPDAYKSVIEALKHGGLKNRVSVNIKLIDSQDVETRGVEILKGLDAILVPGGFGYRGVEGMITTARFARENNIPYLGICLGMQVALIDYARHVANMENANSTEFVPDCKYPVVALITEWRDENGNVEVRSEKSDLGGTMRLGAQQCQLVDDSLVRQLYNAPTIVERHRHRYEVNNMLLKQIEDAGLRVAGRSGDDQLVEIIEVPNHPWFVACQFHPEFTSTPRDGHPLFAGFVKAASEFQKRQAK
Which “stoichiometry N” value does the source give for B1 here?
Its value is 4.
